Results as given in the nanobody polyreactivity screen of Harvey et al. (2022).

Test: yeast display, Sf9 membrane polyspecificity reagent, FACS + sequencing; frameworks hold sequencing errors
Outline: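 Nanobodies from a synthetic yeast display library (Saccharomyces cerevisiae BJ5465), induced 36–48 hours with galactose, were stained 1 hour at 4 °C with 10% biotinylated, detergent-solubilized Sf9 membrane reagent, enriched on streptavidin microbeads, then FACS-sorted. Anti-HA (expression) and streptavidin (reagent binding) fluorescence set low and high (top ~1%) gates. Polyreactivity labels come from the gate of origin. Genes were colony-PCR amplified, MiSeq 2 × 250 sequenced and filtered by CDR length.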
For “QVQLVESGGGLVQAGGSLRLSCAASGFIFRYYAMGWYRQAPGKERELVARITPRGGRTYYADSVKGRFTISRDNAKNTVYLQMNSLKPEDTAVYYCAAVYPVLDEFGYWGQGTQVTVSS”, the “polyreactivity (PSR sort gate)” value was “high polyreactivity”.
In the case of “QVQLVESGGGLVQAGGSLRLSCAASGFIFRYYDMGWYRQAPGKERELVAAISWSGCSTYYADSVKGRFTISRDNAKNTVYLQMNSLKPEYTAVYYCAAERYAMLFYAEDYWGQGTQVTVSS”, the “polyreactivity (PSR sort gate)” value is reported as “low polyreactivity”.
With “QVQLVESGGGLVQAGGSLRLSCAASGFIFRYYTMGWYRQAPVKERELVASITRSGGSTYYADSVKGRFTISRDNGKNTVYLQMNSLKPEDTAVYYCAAVVYLRFRNSYWGQGTQVTVSS” the “polyreactivity (PSR sort gate)” value was “high polyreactivity”.
In the case of “QVQLVESGGGLVQAGGSLRLSCAASGFIFSANDMGGYRQAPGKERELVADIDSSGRTNYADSVKGRFTISRDNAKNTVYLQMNSLNPEDTAVYYCATPPDDKGGGYLGYDYWGQGTEVTVSS”, the “polyreactivity (PSR sort gate)” value is reported as “low polyreactivity”.
With “QVQLVESGGGLVQAGGSLRLSCAASGFIFSFDNAMGWYRQAPGKERELVAAISSGTTTHYADSVKGRFTISRDNAKNTVYLQMNSLKREDTAVYYCAAGTATDVASIGATKDYDYWGQGTQGTVSS” the “polyreactivity (PSR sort gate)” value was “low polyreactivity”.
For “QVQLVESGGGLVQAGGSLRLSCAASGFIFSFYVMGWYRQAPGKERELVAAISTSGASTYYADSVKGRFTISRDNAKNTVYLQMNSLKPEDTAVFYCNVVYRYGGYNYWGQGTQVTVSS”, the “polyreactivity (PSR sort gate)” value was “high polyreactivity”.
For “QVQLVESGGGLVQAGGSLRLSCAASGFIFSGNAMGWYRQAPGKEREFVAAISTSAGTTNYADSVKGRFTISRDNAKNTVYLQMNSLKPEDTAVYYCAARSTRRRIYGYWGQGTQVTVSS”, the “polyreactivity (PSR sort gate)” value was “high polyreactivity”.
For “QVQLVESGGGLVQAGGSLRLSCAASGFIFSGYAMGWYRQAPGKERELVAAIRWSTGSTYYADSVKGRFTISRDNAKNTVYLQMNSLKPEDTAVYYCNAYRYQWAQSTEYDYWGQGTQVTVSS”, the “polyreactivity (PSR sort gate)” value was “high polyreactivity”.
In the case of “QVQLVESGGGLVQAGGSLRLSCAASGFIFSGYAMGWYRQAPGKERELVAAISGGGSTYYADSVKGRFTSSRDNAKNTVYLQMNNLKPEETADYYCAARVYWSVRYYYWGQGTQVTVSS”, the “polyreactivity (PSR sort gate)” value is reported as “high polyreactivity”.
For “QVQLVESGGGLVQAGGSLRLSCAASGFIFSGYAMGWYRQAPGKERELVAAISTRGGRTYYADSVKGRFTISRDNAKNTVYLQMNSLKPEDTAVYYCAADSLYPELDYWGQGTQVTVSS”, the “polyreactivity (PSR sort gate)” value was “high polyreactivity”.
With “QVQLVESGGGLVQAGGSLRLSCAASGFIFSHNAMGWYRQAPGKERELVAAIDYIDGSTYYADSVKGRFTISRDNAKNTVYLQMNSLKPEDTAVYYCAADGLFYWWHYGYWGQGTQVTVSS” the “polyreactivity (PSR sort gate)” value was “low polyreactivity”.
For “QVQLVESGGGLVQAGGSLRLSCAASGFIFSHNAMGWYRQAPGKERELVAAIDYIDGSTYYADSVKGRFTISRDNAKYTVYLQMNSLIPEDTAVYDCAADGLFYWWHYGYWGQGSQVTVSS”, the “polyreactivity (PSR sort gate)” value was “low polyreactivity”.
For “QVQLVESGGGLVQAGGSLRLSCAASGFIFSHYAMGWYRQSPGKEREFVATSSKRGGSTTYADSVKGRFTISRDNAKNTVYLQMNSLKPEDTAVYYCAADRYRSFERYDYWGQGTQVTVSS”, the “polyreactivity (PSR sort gate)” value was “high polyreactivity”.
For “QVQLVESGGGLVQAGGSLRLSCAASGFIFSKNAMGWYRQAPGKERELVARITRRVGSTYYADSVKGRFTISRDNAKNTVYIQMNSLKPEDTAVYYCAVLPRVKDGTGGDYWGQGTQVTVSS”, the “polyreactivity (PSR sort gate)” value was “high polyreactivity”.
For “QVQLVESGGGLVQAGGSLRLSCAASGFIFSKYAMGWYRQAPGKERELVAAISTSGASTYYADSVKGRFTISRDNAKNTVYLQMNSLKPEDTAVYYCNVPRYSPIRNYDYWGQGTQVTVSS”, the “polyreactivity (PSR sort gate)” value was “high polyreactivity”.
For “QVQLVESGGGLVQAGGSLRLSCAASGFIFSKYGMGWYRQAPGKERELVAAISIRGGNTYYADSVKGRFTISRDNAKNTFYLQMYSLKPEDTAVYYCAAGLRAYPYGTRSGVYYYWGQGTQVTVSS”, the “polyreactivity (PSR sort gate)” value was “high polyreactivity”.
For “QVQLVESGGGLVQAGGSLRLSCAASGFIFSLYAMGWYRQAPGKERELVAAITRSGGSTYYADSVKGRFTISRDNAKNTVYLQMNSLKPEDTAVYYCAASRGRGGYGFDYWGQGTQVTVSS”, the “polyreactivity (PSR sort gate)” value was “high polyreactivity”.
With “QVQLVESGGGLVQAGGSLRLSCAASGFIFSNNAMGWSRQAPGKERELVAAITSSGGRTYYADSVKGRFTISRDNAKNTVYLLMNSLKPEDTAVYYCAAARYDIMGYWGQGTQVTVSS” the “polyreactivity (PSR sort gate)” value was “high polyreactivity”.
For “QVQLVESGGGLVQAGGSLRLSCAASGFIFSNYAMGWYRQAPGKERELVARISSSGGSTYYADSVKVRFTISRDIAKNTVYLQMNSLKPEVTAVYYCAAGFNLPAWGWAYYYWGQGTQVTVSS”, the “polyreactivity (PSR sort gate)” value was “high polyreactivity”.
For “QVQLVESGGGLVQAGGSLRLSCAASGFIFSPYAMGWYRQAPGKVRELVAAISRRGGSTYYADSVKGRFTISRDNAKNTVYLQMNSLKPEDTAVYYCAAVYGASQVDYDYWGQGTQVTVSS”, the “polyreactivity (PSR sort gate)” value was “high polyreactivity”.
For “QVQLVESGGGLVQAGGSLRLSCAASGFIFSQYAMGWYRQAPGKERELVAAISYRGGSTYYADSVKGRFTISRDNAKNTVYLQMNSLKPEDTAVYYCNAGRRSQTYLGTCDYWGQGTQVTVSS”, the “polyreactivity (PSR sort gate)” value was “high polyreactivity”.
With “QVQLVESGGGLVQAGGSLRLSCAASGFIFSRNAMGWYRQAPGNERDLVAAISLRGGSTYYTDSVKGRFTISRDNAKNTVYLQMISLKPEDTAVYYCAAVSGRYLTRDGYWGQGTQVTVSS” the “polyreactivity (PSR sort gate)” value was “high polyreactivity”.
In the case of “QVQLVESGGGLVQAGGSLRLSCAASGFIFSRYAKGWSRPAPGKERELVAAITRGGGDTYYADSVKGRFTISRDNAKNTVYLQMNSLKPEDTAVYYCNARYRRYTTRFGAMDYWGQGTQVTVSS”, the “polyreactivity (PSR sort gate)” value is reported as “high polyreactivity”.
With “QVQLVESGGGLVQAGGSLRLSCAASGFIFSRYAMGCYSPAPGKVIELVAAISSRGGSTYYADSVKGRFTISRDNAKNTVYLQMNSLKPEDTAVYYCAARGPTFGVDYGYWGQGTQVTLSS” the “polyreactivity (PSR sort gate)” value was “high polyreactivity”.
For “QVQLVESGGGLVQAGGSLRLSCAASGFIFSRYAMGWYRQAPGKERELGATINTNGGSTYYAYSVKGRFTISRDNAKNTVYLQMNSLKPEDTAVYYCNAKYQALQRSWGRYDYWGQGTQVTVSS”, the “polyreactivity (PSR sort gate)” value was “low polyreactivity”.
With “QVQLVESGGGLVQAGGSLRLSCAASGFIFSRYAMGWYRQAPGKERELVAAITSGGGTYSADSVKGRFTISRDNAKNTVYLQMNSLKPEDTAVYYCAAGYGPTSTSSVRITAGDHWGQGTQVTVSS” the “polyreactivity (PSR sort gate)” value was “low polyreactivity”.
With “QVQLVESGGGLVQAGGSLRLSCAASGFIFSRYAMGWYRQAPGKERELVASISWGGGSTSYADSVKGRFTISRDNAKNTVYLQMNSLKPEDTAVYYCNARVRSHRFNYWGQGTQVTVSS” the “polyreactivity (PSR sort gate)” value was “high polyreactivity”.
In the case of “QVQLVESGGGLVQAGGSLRLSCAASGFIFSRYVMGWYRQAPGKERELVAAISSSGGRTYYADSVKGRFTISRDNAKNTVYLQMNCLKPEDTAVYYCAAKPLPGGADTTSPRYDYWGQGTQVTVSS”, the “polyreactivity (PSR sort gate)” value is reported as “high polyreactivity”.
With “QVQLVESGGGLVQAGGSLRLSCAASGFIFSSIAMGWYRPAPGKEREFVAAITSGGITYYADSLKGRFTISRDNAKNTVYLQMNSLKPEDTAVYYCAAVLSYQTPKYYRWRYGYWGQGTQVTVSS” the “polyreactivity (PSR sort gate)” value was “low polyreactivity”.
For “QVQLVESGGGLVQAGGSLRLSCAASGFIFSSNAMGWYRQAPGKEREFVAAISFRGGTTYYADSVKGRFTISRDNAKNTVYLQMKSLKPEDTAVYYCNAVRWRSGRWWWYDYWGQGTQVTVSS”, the “polyreactivity (PSR sort gate)” value was “low polyreactivity”.
In the case of “QVQLVESGGGLVQAGGSLRLSCAASGFIFSSNAMGWYRQAPGKERELVARITWSDGSTYYADSVKGRFTISRDNAKNTVYLQMNSLKPEDTAVYYCAKGRDATHYEYYLYSMDYWGQGTQVTVSS”, the “polyreactivity (PSR sort gate)” value is reported as “low polyreactivity”.
In the case of “QVQLVESGGGLVQAGGSLRLSCAASGFIFSSYALGSYRQAPGKERELVAAIDLSGDSTYYADSVKGLFTISRDNAKNTVYLQMNSVKPEDTAVYYCAAQYYDYWYDSDYWGQGTQVTVSS”, the “polyreactivity (PSR sort gate)” value is reported as “high polyreactivity”.
With “QVQLVESGGGLVQAGGSLRLSCAASGFIFSSYAMGWYRQAPGKERELVAAISRSGGRTNYADSVKGRFTISRDNAKNTVYLQMNSLKPEDTAVYYCAAGRWWVYRYARYYYWGQGTQVTVSS” the “polyreactivity (PSR sort gate)” value was “high polyreactivity”.
For “QVQLVESGGGLVQAGGSLRLSCAASGFIFSSYAMGWYRQAPGKERELVAAISRSGGRTYYADSVKGRFTISRDNAKNTVYLQMNSLKPEDTAVYYCAAKRWWQYYWGQGTQVTVSS”, the “polyreactivity (PSR sort gate)” value was “high polyreactivity”.
In the case of “QVQLVESGGGLVQAGGSLRLSCAASGFIFSSYAMGWYRQAPGKERELVAVITRSGRRTYYADSVKGRFTISRDNAKNTVYLQMNSLKPEDTAVYYCNATLPNEVAPNDYWGQGTQVTVSS”, the “polyreactivity (PSR sort gate)” value is reported as “high polyreactivity”.
With “QVQLVESGGGLVQAGGSLRLSCAASGFIFSSYGMGWYRQAPGKERELVADISGGGSTNYADSVKGRFTISRDNAKNTVYLQMNSLKPEDTAVYYCNAQLIRSAAYDYWGQGTQVTVSS” the “polyreactivity (PSR sort gate)” value was “low polyreactivity”.
For “QVQLVESGGGLVQAGGSLRLSCAASGFIFSTYAMGWYRQAPGKERELVAAITNSGGSTYYADSVKGRFTISRDNAKNTVYLQMNSLKPEDTAVYYCARRRSYRDNYWGQGTQVTVSS”, the “polyreactivity (PSR sort gate)” value was “high polyreactivity”.
With “QVQLVESGGGLVQAGGSLRLSCAASGFIFSWYDMGWYRQAPGKERELVAAISYSGSNTYYADSVKGRFTISRDNAKNTVYLQMNSLKPEDTAVYYCAATLGSRWAIYDYWGQGTQVTVSS” the “polyreactivity (PSR sort gate)” value was “high polyreactivity”.
In the case of “QVQLVESGGGLVQAGGSLRLSCAASGFIFSYNAMGWYRQAPGKERELVATITRRGGGTTYADSVKGRFTISRDNAKNTVYLQMNSLKPEDTAGYYCNRDDNRKHSFGSVGYDYWGQGTQVTVSS”, the “polyreactivity (PSR sort gate)” value is reported as “low polyreactivity”.
For “QVQLVESGGGLVQAGGSLRLSCAASGFIFSYYAMGWYRPAPGKEREFVAAISRRGGSTYYADSVKGRFTISRDNAKNTVYLQMNSLKPEDTAVFYCARRRTSTAVREHYYRDWYGYDFWGQGTQVTVSS”, the “polyreactivity (PSR sort gate)” value was “high polyreactivity”.
In the case of “QVQLVESGGGLVQAGGSLRLSCAASGFIFSYYAMGWYRQAPGKERELVAAINWSGGSTYYADSVKGRFTISRDNAKNTVYLQMNSLKPEDTAVYYCAAYSSWHPYDYWGQGTQVTVSS”, the “polyreactivity (PSR sort gate)” value is reported as “high polyreactivity”.
With “QVQLVESGGGLVQAGGSLRLSCAASGFIFSYYAMGWYRQAPGKERELVAAISGRGGSTYYADSVKGRFTISRDNAKNTVYLQMNSLQPEDTAVYYCAADSPWGGGYFVLYNYWGQGTQVTVSS” the “polyreactivity (PSR sort gate)” value was “low polyreactivity”.
With “QVQLVESGGGLVQAGGSLRLSCAASGFIFSYYAMGWYRQAPGKERELVAAISGSGGSTYYADSVKGRFTISRDNAKNTVYLQMNSLKPEDTAVYYCAAVSSYSRVYYWGQGTQVTVSS” the “polyreactivity (PSR sort gate)” value was “high polyreactivity”.
